Source: patent US20180017550A1

What was measured:
[1] = target: wild-type human APC segment 3 of Exon 15 (codons 1,099 to 1,696) with N-terminal VSV-G and HSV epito (human) (UniProt P25054)
[2] = target: human glutathione-s-transferase A2 (GST A2), cell-free expressed from pETBlue-2 with C-terminal HSV epitope tag and polyhistidine tag (human) (UniProt P09210); assay: antibody-protein complex photo-released from beads, held on nickel chelate plate by the protein's polyhistidine tag; bound anti-HSV antibody read with anti-[mouse IgG] HRP; against the minus DNA negative control
human glutathione-s-transferase A2 (GST A2), cell-free expressed from pETBlue-2 with C-terminal HSV epitope tag and polyhistidine tag (human), sequence (P09210 other isoform, or with tags, fused parts or gaps): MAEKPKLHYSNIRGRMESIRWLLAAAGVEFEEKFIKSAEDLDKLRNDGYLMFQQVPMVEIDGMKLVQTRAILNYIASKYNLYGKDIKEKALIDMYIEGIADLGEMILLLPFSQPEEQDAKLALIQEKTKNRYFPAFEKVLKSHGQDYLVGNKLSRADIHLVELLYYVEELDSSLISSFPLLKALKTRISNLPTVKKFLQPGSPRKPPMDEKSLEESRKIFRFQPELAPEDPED

[3] = target: human dihydrofolate reductase (DHFR), cell-free expressed with C-terminal HSV and polyhistidine epitope tags (human) (UniProt P00374); assay: as above
[4] = target: human glutathione-s-transferase A2 (GST A2), cell-free expressed from pETBlue-2 with C-terminal HSV epitope tag and polyhistidine tag (human) (UniProt P09210); assay: cell-free expressed HSV-tagged GST captured on anti-HSV PC-antibody NeutrAvidin agarose beads; fractions quantified by fluorescence SDS-PAGE
[5] = target: human glutathione-s-transferase A2 (GST A2), cell-free expressed from pETBlue-2 with C-terminal HSV epitope tag and polyhistidine tag (human) (UniProt P09210); assay: BODIPY-FL labelled GST photo-released from magnetic beads and captured on anti-HSV antibody coated substrate; against the minus DNA blank
[6] = target: human p53 oncoprotein (cellular tumor antigen p53), cell-free expressed from pETBlue-2 with C-terminal HSV epitope tag and polyhistidine tag (human) (UniProt P04637); assay: protein adsorbed to polystyrene 96-well plate, anti-HSV-AP chemiluminescence; against the minus DNA negative control
[7] = target: human alpha-tubulin, cell-free expressed with C-terminal HSV epitope tag and polyhistidine tag (human) (UniProt P50607); assay: as above

wild-type human APC segment 3 of Exon 15 (codons 1,099 to 1,696) with N-terminal VSV-G and HSV epito (human), sequence (P25054 other isoform, or with tags, fused parts or gaps limits assumed): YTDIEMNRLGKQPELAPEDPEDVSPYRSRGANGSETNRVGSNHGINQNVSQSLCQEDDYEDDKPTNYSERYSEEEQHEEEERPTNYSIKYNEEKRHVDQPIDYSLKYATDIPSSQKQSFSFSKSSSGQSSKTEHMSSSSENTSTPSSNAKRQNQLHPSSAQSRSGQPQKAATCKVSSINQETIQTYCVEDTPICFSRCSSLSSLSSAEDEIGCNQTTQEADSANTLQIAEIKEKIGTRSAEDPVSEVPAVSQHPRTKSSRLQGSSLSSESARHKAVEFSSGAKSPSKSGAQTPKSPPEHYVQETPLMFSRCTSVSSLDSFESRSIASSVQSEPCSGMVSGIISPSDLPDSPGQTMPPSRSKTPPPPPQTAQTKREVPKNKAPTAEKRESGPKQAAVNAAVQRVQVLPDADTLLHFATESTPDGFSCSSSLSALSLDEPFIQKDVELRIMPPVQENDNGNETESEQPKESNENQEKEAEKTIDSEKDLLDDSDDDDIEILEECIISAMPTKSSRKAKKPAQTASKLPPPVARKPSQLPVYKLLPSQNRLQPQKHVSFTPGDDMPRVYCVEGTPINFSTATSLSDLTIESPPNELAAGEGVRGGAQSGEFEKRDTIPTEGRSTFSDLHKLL

Row | signal to noise ratio [2] | signal to noise ratio [3] | percent of total GST bound [4] [%] | percent of total GST not bound [4] [%] | signal to noise ratio [5] | signal to noise ratio [6] | signal to noise ratio [7] | Substance | signal to noise ratio [1]
1 | – | – | – | – | – | – | – | anti-VSV antibody conjugated to the Cy3 fluorophore (clone P5D4; Sigma-Aldrich, St. Louis, Mo.) | 186 :1
2 | 108 :1 | 19 :1 | 75 | 25 | 9 :1 | 609 :1 | 140 :1 | mouse monoclonal anti-HSV tag antibody (EMD Biosciences, Inc., San Diego, Calif.) | –
